One assay has as its target T1, FKBP15 (human, UniProt Q5T1M5 1-1219, limits assumed).
T1 sequence (looked up): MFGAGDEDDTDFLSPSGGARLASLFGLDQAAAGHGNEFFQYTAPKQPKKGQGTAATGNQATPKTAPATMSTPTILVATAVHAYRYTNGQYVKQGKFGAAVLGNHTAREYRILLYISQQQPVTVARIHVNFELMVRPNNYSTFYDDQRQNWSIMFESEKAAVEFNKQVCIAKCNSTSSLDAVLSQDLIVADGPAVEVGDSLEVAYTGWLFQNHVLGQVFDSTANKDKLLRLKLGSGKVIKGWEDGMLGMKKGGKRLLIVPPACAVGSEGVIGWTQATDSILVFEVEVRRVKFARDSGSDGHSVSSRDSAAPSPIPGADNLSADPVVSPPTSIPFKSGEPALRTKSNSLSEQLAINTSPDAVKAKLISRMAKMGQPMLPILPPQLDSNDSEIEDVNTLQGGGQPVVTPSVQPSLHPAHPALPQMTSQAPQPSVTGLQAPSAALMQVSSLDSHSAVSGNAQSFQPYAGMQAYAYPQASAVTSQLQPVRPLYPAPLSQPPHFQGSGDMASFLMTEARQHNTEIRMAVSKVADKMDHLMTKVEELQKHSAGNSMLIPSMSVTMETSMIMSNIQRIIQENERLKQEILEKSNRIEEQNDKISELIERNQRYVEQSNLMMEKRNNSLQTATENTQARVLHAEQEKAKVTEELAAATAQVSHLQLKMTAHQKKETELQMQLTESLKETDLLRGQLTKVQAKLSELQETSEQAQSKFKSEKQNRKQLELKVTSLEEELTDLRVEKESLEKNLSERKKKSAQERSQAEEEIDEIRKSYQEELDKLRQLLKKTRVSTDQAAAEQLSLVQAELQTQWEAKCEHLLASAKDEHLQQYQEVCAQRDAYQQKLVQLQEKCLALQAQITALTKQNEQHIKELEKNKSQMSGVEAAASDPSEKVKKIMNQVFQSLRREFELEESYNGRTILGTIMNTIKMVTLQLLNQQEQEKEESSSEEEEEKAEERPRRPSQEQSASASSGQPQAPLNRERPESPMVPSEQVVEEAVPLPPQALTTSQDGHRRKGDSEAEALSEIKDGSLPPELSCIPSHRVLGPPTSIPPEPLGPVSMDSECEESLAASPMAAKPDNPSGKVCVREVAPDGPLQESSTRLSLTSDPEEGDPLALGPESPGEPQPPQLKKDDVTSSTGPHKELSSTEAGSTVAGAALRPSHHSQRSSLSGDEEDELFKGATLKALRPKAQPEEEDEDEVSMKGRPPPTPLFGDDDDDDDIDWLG
The assay is described as follows: IP/MS, LZTR1 wild type-FLAG, U87. Summed up: (§1)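 Read-out: spectral counts from LC-MS/MS (Orbitrap Fusion) after MaxQuant identification. Variable modifications were Met oxidation, protein N-terminal acetylation and N/Q deamidation.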

Another assay has as its target T2, TRAPPC11 (human, UniProt Q7Z392 1-1133, limits assumed).
T2 sequence (looked up): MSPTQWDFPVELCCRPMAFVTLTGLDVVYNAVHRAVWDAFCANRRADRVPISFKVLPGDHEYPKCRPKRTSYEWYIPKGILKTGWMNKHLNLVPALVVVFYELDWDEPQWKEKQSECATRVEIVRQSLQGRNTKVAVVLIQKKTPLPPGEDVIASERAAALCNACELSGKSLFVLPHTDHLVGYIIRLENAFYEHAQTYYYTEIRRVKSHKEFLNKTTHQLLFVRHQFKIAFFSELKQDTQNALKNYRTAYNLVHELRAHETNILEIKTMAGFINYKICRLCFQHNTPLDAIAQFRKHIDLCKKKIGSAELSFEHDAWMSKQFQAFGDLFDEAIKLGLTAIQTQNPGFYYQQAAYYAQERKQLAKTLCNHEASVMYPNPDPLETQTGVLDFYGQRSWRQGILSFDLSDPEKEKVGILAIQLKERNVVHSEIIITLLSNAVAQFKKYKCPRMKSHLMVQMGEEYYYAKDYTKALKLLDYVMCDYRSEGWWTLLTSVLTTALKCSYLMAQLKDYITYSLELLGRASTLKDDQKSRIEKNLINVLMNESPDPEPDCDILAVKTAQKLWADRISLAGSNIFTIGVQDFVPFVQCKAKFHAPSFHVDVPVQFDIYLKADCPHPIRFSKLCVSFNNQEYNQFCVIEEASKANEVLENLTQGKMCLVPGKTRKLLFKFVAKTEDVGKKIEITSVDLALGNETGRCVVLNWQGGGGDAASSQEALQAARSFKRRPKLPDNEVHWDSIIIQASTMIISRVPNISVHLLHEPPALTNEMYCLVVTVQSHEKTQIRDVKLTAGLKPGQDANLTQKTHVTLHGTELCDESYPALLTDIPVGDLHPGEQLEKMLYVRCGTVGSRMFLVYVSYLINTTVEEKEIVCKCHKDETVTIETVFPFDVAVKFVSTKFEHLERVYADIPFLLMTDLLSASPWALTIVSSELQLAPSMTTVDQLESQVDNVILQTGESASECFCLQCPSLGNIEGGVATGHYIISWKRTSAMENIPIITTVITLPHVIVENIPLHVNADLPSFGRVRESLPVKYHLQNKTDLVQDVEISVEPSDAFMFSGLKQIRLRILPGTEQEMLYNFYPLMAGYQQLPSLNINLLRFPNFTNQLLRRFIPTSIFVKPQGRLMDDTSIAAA
The assay is described as follows: IP/MS, LZTR1 wild type-FLAG, U87. An outline of the steps:
as §1

B1: LZTR1-FLAG (other, human, UniProt Q8N653 1-840, looked up)
chain: MAGPGSTGGQIGAAALAGGARSKVAPSVDFDHSCSDSVEYLTLNFGPFETVHRWRRLPPCDEFVGARRSKHTVVAYKDAIYVFGGDNGKTMLNDLLRFDVKDCSWCRAFTTGTPPAPRYHHSAVVYGSSMFVFGGYTGDIYSNSNLKNKNDLFEYKFATGQWTEWKIEGRLPVARSAHGATVYSDKLWIFAGYDGNARLNDMWTIGLQDRELTCWEEVAQSGEIPPSCCNFPVAVCRDKMFVFSGQSGAKITNNLFQFEFKDKTWTRIPTEHLLRGSPPPPQRRYGHTMVAFDRHLYVFGGAADNTLPNELHCYDVDFQTWEVVQPSSDSEVGGAEVPERACASEEVPTLTYEERVGFKKSRDVFGLDFGTTSAKQPTQPASELPSGRLFHAAAVISDAMYIFGGTVDNNIRSGEMYRFQFSCYPKCTLHEDYGRLWESRQFCDVEFVLGEKEECVQGHVAIVTARSRWLRRKITQARERLAQKLEQEAAPVPREAPGVAAGGARPPLLHVAIREAEARPFEVLMQFLYTDKIKYPRKGHVEDVLLIMDVYKLALSFQLCRLEQLCRQYIEASVDLQNVLVVCESAARLQLSQLKEHCLNFVVKESHFNQVIMMKEFERLSSPLIVEIVRRKQQPPPRTPLDQPVDIGTSLIQDMKAYLEGAGAEFCDITLLLDGHPRPAHKAILAARSSYFEAMFRSFMPEDGQVNISIGEMVPSRQAFESMLRYIYYGEVNMPPEDSLYLFAAPYYYGFYNNRLQAYCKQNLEMNVTVQNVLQILEAADKTQALDMKRHCLHIIVHQFTKVSKLPTLRSLSQQLLLDIIDSLASHISDKQCAELGADI
notes: Expressed in HEK 293T, HeLa or U87 cells; used as cell lysate; also called LZTR1 wild type-FLAG; LZTR1 WT; not shown: FLAG tag at the C-terminus
In the case of B1, the binding result with FKBP15 and with TRAPPC11 was “binds” in each case.
